Results: PMC5576923 (eLife, 2017)
Values belong to the binder of their own block, whether it stands above or below them.

What was measured:
β-Arrestin1 [1] = molecular target: T1, β-Arrestin1 (human (endogenous in Caco-2 and HCT116), UniProt P49407 1-418); assay: proximity ligation; Duolink II red kit on fixed, permeabilised cells; PTEN-/- HCT116 cells transfected 24 hr with GFP-tagged EV or PTEN constructs, HCT116 cells as positive control; signal as AI units, n = 35 cells per condition in triplicate; conditions: partners not purified
T1 construct: β-Arrestin1, endogenous in human colorectal cell lines Caco-2 and HCT116 and their PTEN-deficient subclones; Precipitated with anti-β-Arrestin1 (bait of the co-IPs); detected with mouse anti-β-Arrestin1 in the PLA; also called Beta-Arrestin1; source: endogenous, Caco-2, Caco-2 ShPTEN, HCT116 and PTEN-/- HCT116 cells (lysate, membrane fraction, or fixed cells)

β-Arrestin1 [2] = molecular target: T1, β-Arrestin1; assay: cell-based or functional assay

T1 sequence (P49407 whole entry): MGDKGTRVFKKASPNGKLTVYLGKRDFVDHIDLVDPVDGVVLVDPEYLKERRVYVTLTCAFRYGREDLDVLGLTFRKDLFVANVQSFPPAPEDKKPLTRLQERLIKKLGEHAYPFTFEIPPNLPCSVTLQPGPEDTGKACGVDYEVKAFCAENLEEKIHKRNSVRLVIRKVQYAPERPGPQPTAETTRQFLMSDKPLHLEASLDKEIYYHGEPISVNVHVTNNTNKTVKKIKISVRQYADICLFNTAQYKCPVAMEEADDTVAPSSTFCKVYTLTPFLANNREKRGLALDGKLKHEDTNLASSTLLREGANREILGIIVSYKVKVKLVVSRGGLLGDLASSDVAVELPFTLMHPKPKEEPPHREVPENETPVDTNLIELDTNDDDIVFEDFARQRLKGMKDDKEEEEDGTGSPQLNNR

- PLA interaction AI (β-Arrestin1 [1]): 123 AI units
- Cdc42-GTP (ADU, fold) in HCT116 cells after pep24 vs control peptide (β-Arrestin1 [2]): 0.44 fold change
- Cdc42-GTP (fold change, ADU) in Caco-2 cells after 10 μM pep24 vs control peptide (β-Arrestin1 [2]): 0.48 fold change
B1: ARHGAP21 (natural protein, human (endogenous in Caco-2 and HCT116), UniProt Q5T5U3 1-1958, looked up)
chain: MMATRRTGLSEGDGDKLKACEVSKNKDGKEQSETVSLSEDETFSWPGPKTVTLKRTSQGFGFTLRHFIVYPPESAIQFSYKDEENGNRGGKQRNRLEPMDTIFVKQVKEGGPAFEAGLCTGDRIIKVNGESVIGKTYSQVIALIQNSDTTLELSVMPKDEDILQVLQFTKDVTALAYSQDAYLKGNEAYSGNARNIPEPPPICYPWLPSAPSAMAQPVEISPPDSSLSKQQTSTPVLTQPGRAYRMEIQVPPSPTDVAKSNTAVCVCNESVRTVIVPSEKVVDLLSNRNNHTGPSHRTEEVRYGVSEQTSLKTVSRTTSPPLSIPTTHLIHQPAGSRSLEPSGILLKSGNYSGHSDGISSSRSQAVEAPSVSVNHYSPNSHQHIDWKNYKTYKEYIDNRRLHIGCRTIQERLDSLRAASQSTTDYNQVVPNRTTLQGRRRSTSHDRVPQSVQIRQRSVSQERLEDSVLMKYCPRSASQGALTSPSVSFSNHRTRSWDYIEGQDETLENVNSGTPIPDSNGEKKQTYKWSGFTEQDDRRGICERPRQQEIHKSFRGSNFTVAPSVVNSDNRRMSGRGVGSVSQFKKIPPDLKTLQSNRNFQTTCGMSLPRGISQDRSPLVKVRSNSLKAPSTHVTKPSFSQKSFVSIKDQRPVNHLHQNSLLNQQTWVRTDSAPDQQVETGKSPSLSGASAKPAPQSSENAGTSDLELPVSQRNQDLSLQEAETEQSDTLDNKEAVILREKPPSGRQTPQPLRHQSYILAVNDQETGSDTTCWLPNDARREVHIKRMEERKASSTSPPGDSLASIPFIDEPTSPSIDHDIAHIPASAVISASTSQVPSIATVPPCLTTSAPLIRRQLSHDHESVGPPSLDAQPNSKTERSKSYDEGLDDYREDAKLSFKHVSSLKGIKIADSQKSSEDSGSRKDSSSEVFSDAAKEGWLHFRPLVTDKGKRVGGSIRPWKQMYVVLRGHSLYLYKDKREQTTPSEEEQPISVNACLIDISYSETKRKNVFRLTTSDCECLFQAEDRDDMLAWIKTIQESSNLNEEDTGVTNRDLISRRIKEYNNLMSKAEQLPKTPRQSLSIRQTLLGAKSEPKTQSPHSPKEESERKLLSKDDTSPPKDKGTWRKGIPSIMRKTFEKKPTATGTFGVRLDDCPPAHTNRYIPLIVDICCKLVEERGLEYTGIYRVPGNNAAISSMQEELNKGMADIDIQDDKWRDLNVISSLLKSFFRKLPEPLFTNDKYADFIEANRKEDPLDRLKTLKRLIHDLPEHHYETLKFLSAHLKTVAENSEKNKMEPRNLAIVFGPTLVRTSEDNMTHMVTHMPDQYKIVETLIQHHDWFFTEEGAEEPLTTVQEESTVDSQPVPNIDHLLTNIGRTGVSPGDVSDSATSDSTKSKGSWGSGKDQYSRELLVSSIFAAASRKRKKPKEKAQPSSSEDELDNVFFKKENVEQCHNDTKEESKKESETLGRKQKIIIAKENSTRKDPSTTKDEKISLGKESTPSEEPSPPHNSKHNKSPTLSCRFAILKESPRSLLAQKSSHLEETGSDSGTLLSTSSQASLARFSMKKSTSPETKHSEFLANVSTITSDYSTTSSATYLTSLDSSRLSPEVQSVAESKGDEADDERSELISEGRPVETDSESEFPVFPTALTSERLFRGKLQEVTKSSRRNSEGSELSCTEGSLTSSLDSRRQLFSSHKLIECDTLSRKKSARFKSDSGSLGDAKNEKEAPSLTKVFDVMKKGKSTGSLLTPTRGESEKQEPTWKTKIADRLKLRPRAPADDMFGVGNHKVNAETAKRKSIRRRHTLGGHRDATEISVLNFWKVHEQSGERESELSAVNRLKPKCSAQDLSISDWLARERLRTSTSDLSRGEIGDPQTENPSTREIATTDTPLSLHCNTGSSSSTLASTNRPLLSIPPQSPDQINGESFQNVSKNASSAANAQPHKLSETPGSKAEFHPCL
notes: also called ARHGA21; source: endogenous, Caco-2, Caco-2 ShPTEN, HCT116 and PTEN-/- HCT116 cells (lysate, membrane fraction, or fixed cells)

B2: GFP-labeled PTEN C124S-T383A (natural protein, UniProt P60484 1-403, looked up)
chain: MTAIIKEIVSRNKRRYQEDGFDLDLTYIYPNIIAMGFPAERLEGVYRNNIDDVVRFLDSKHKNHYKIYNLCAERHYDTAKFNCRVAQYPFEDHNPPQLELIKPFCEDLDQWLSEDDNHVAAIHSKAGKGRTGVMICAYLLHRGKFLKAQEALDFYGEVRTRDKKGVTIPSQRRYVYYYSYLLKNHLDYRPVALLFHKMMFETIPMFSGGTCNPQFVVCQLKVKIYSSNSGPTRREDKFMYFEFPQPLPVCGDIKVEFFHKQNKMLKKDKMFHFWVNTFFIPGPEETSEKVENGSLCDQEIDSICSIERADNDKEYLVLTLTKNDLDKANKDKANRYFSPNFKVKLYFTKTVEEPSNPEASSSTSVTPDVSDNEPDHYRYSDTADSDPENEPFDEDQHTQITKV
notes: also called CS-T383A; source: PTEN-/- HCT116 cells, transfected, in fixed cells
- PLA interaction AI (β-Arrestin1 [1]): 69.8 AI units

- PLA interaction AI (β-Arrestin1 [1]): 101 AI units
B3: PTEN (phosphatase and tensin homolog) (natural protein)
chain: not shown
notes: source: endogenous, HCT116 cells (fixed cells)
